Results reported in paper PMC4515812.

B1: Sp1 consensus probe (Sp1_EMSA1) (dsDNA)
DNA 1: ATTCGATCGGGGCGGGGCGAGC
DNA 2: GCTCGCCCCGCCCCGATCGAAT
B2: Sp1 site -403/-382 probe (Sp1_EMSA2) (dsDNA)
DNA 1: CGGGGCCCCGCCCGGGCCAGCC
DNA 2: GGCTGGCCCGGGCGGGGCCCCG
B3: Sp1 site -336/-315 probe (Sp1_EMSA3) (dsDNA)
DNA 1: GGGGGCCTCGCCCCTTTGGGGC
DNA 2: GCCCCAAAGGGGCGAGGCCCCC

Target: Sp1 (recombinant, Sigma-Aldrich SRP2030) (UniProt P08047 1-785)
Assay: EMSA

Sequence of Sp1 (recombinant, Sigma-Aldrich SRP2030) (P08047 whole entry): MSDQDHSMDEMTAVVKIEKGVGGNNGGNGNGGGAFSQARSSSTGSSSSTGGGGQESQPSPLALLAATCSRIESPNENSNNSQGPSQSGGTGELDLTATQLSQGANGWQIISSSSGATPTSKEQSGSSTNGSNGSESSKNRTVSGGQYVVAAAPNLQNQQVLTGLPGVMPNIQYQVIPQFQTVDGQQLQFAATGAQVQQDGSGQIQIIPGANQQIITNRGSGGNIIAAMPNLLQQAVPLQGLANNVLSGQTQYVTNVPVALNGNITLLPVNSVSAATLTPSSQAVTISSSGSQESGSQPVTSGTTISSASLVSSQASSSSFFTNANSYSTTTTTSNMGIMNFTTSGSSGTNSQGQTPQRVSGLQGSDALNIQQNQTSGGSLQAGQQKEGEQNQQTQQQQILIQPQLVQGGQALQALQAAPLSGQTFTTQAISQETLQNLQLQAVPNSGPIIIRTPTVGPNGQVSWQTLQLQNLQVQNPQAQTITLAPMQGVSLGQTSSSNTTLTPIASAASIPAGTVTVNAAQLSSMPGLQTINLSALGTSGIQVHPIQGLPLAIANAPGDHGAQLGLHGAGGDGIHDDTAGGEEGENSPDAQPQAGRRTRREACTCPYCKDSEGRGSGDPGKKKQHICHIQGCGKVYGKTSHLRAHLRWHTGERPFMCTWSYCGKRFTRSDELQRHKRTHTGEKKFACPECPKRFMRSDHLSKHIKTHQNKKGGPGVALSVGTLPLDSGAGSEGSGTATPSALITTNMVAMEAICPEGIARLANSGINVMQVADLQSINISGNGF

Binding result, binds:
B1
B2
B3
